Assay [1] deals with T1, SARS-CoV-2 spike glycoprotein S1+S2 extracellular domain (SARS-CoV-2, reference sequence, UniProt P0DTC2).
T1 construct: also called full-length spike glycoprotein ectodomain
Kind of assay: ELISA. For orientation: An ELISA detects its analyte on a solid surface through an enzyme-linked reagent.

Assay [2] concerns the target T2, SARS-CoV-2 spike glycoprotein, full-length, prefusion-stabilised, on MDCK-SIAT1 cells (SARS-CoV-2, reference sequence, UniProt P0DTC2, 986KV987 to 986PP987 | 682RRAR685 to 682GSAG685).
T2 construct: also called MDCK-Spike
In words: flow cytometry on cells. As to conditions: one partner purified. (A flow cytometer gives signals particle by particle.)

B1: FJ 4E (antibody, V domains shown)
VH: QVQLVESGPGLVKPSETLSLTCSVSGGSISSGTYYWSWIRQQPGKGLEWIGYIYNTGRPYYNPFLKSRITISVDSSKNQFSLKLTSVTAADTAVYYCARDEYDSSDSGIQGHWFDPWGQGTLVTVSS
VL: AIRMTQSPSSLSASVGDRVTITCRTSQNINSFLNWYQQKPGKGPNLLIYGAFTLQSGVPSRFSGSGSGTDFTLTISSLQPEDFATYFCQQSYSTPWTFGQGTKVEIK
notes: source: HEK293T, transfected; culture supernatant or purified
As for B1, the OD450 in assay [1] was found to be 0.26 OD450.

B2: FD 7D (antibody, V domains shown)
VH: EVQLVESGAEVKKPGESLRISCKGSGYSFTSYWISWVRQMPGKGLEWMGRIDPSDSYTNYSPSFQGHVTISADKSISTAYLQWSSLKASDTAMYYCARHSDCSSTSCYFVDAFDIWGQGTMVTVSS
VL: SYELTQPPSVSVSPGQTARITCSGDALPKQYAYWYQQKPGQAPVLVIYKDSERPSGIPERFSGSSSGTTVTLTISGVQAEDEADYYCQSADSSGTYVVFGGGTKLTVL
notes: as for B1
On to B2, for which the OD450 in assay [1] was determined as 1.44 OD450.

B3: FN 12A (antibody, V domains shown)
VH: QVQLVQSGAEVKKPGSSVKVSCKASGGTFSSYAISWVRQAPGQGLEWMGRIIPILGIANYAQKFQGRVTITADKSTSTAYMELSSLRSEDTAVYYCARSGCSSTSCPSNLYYYYYGMDVWGQGTTVTVSS
VL: QSVLTQPPSVSAAPGQKVTISCSGSSSNIGNNYVSWYQQLPGTAPKLLIYDNNKRPSGIPDRFSGSKSGTSATLGITGLQTGDEADYYCGTWDSSLSALVFGGGTKLTVL
notes: as for B1
In the case of B3, the OD450 in assay [1] was 2.24 OD450.

B4: FD 11C (antibody, V domains shown)
VH: EVQLLESGPGLVKPSETLSLTCTVSGGSISSSSYYWGWIRQPPGKGLEWIGSIYYSGSTYYNPSLKSRVTISVDTSKNQFSLKLSSVTAADTAVYYCAREYYYGSETKKYYYYYGMDVWGQGTTVTVSS
VL: not shown
notes: as for B1
With B4, the binding result in assay [2] is given as “binds”. The molecule also registered an OD450 in assay [1] of 1.2 OD450.

B5: FD 11A (antibody, V domains shown)
VH: EVQLVESGGGVVQPGRSLRLSCAASGFTFSSYGMHWVRQAPGKGLEWVAVIWYDGSNKYYADSVKGRFTISRDNSKNTLYLQMNSLRAEDTAVYYCAKGPDILTGYYNYYYYGMDVWGQGTMVTVSS
VL: QSVLTQPPSVSGAPGQRVTISCTGSSSNIGAGYDVHWYQQLPGTAPKLLIYGNSNRPSGVPDRFSGSKSGTSASLAITGLQAEDEADYYCQSYDSSLSGFYVVFGGGTKLTVL
notes: as for B1
B5: in assay [2], the binding result was “binds”. Also, the OD450 in assay [1] was 1.64 OD450.

B6: EW 9C (antibody, V domains shown)
VH: EVQLVESGGGVVQPGASLRLSCVASGFTFNNFGFHWVRQAPGKGLEWLAVISYEGSKTYYAESLKGRFTISRDTSKNTVYLQMNSLRAEDTAVYYCARATSIFWFGEGRNWFDPWGQGTMVTVSS
VL: EIVLTQSPGTVSLSAGERATLSCRASQNVGTDLAWYVQRPGQAPRLLIYDTSNKATGIPARFSGRGSGTDFTLTIDSLEPEDFAVYYCQQRSNWPLTFGGGTKVEIR
notes: as for B1
Consider B6, for which the binding result in assay [2] is recorded as “binds”. The same molecule displayed an OD450 in assay [1] of 1.22 OD450.

B7: FD 8B (antibody, V domains shown)
VH: EVQLLESGAEVKKPGASVKVSCKVSGYTLTELSMHWVRQAPGKGLEWMGGFDPEDGETIYAQKFQGRVTMTEDTSTDTAYMELSSLRSEDTAVYYCATAAAINCSSTSCYYYYYYYGMDVWGQGTTVTVSS
VL: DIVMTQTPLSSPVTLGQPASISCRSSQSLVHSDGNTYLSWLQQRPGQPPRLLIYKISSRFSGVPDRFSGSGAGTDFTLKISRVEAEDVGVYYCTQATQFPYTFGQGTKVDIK
notes: as for B1
Molecule B7 registered an OD450 in assay [1] of 1.1 OD450.

B8: FG 12C (antibody, V domains shown)
VH: EVQLVESGGGLVQPGRSLRLSCAASGFTFDDYAMHWVRQAPGKGLEWVSGISWNSGSIGYADSVKGRFTISRDNAKNSLYLQMNSLRAEDTALYYCAKDMRVHDYGDYYFDYWGQGTLVTVSS
VL: SYELTQPPSVSVAPGKTARITCGGNNIGSKSVHWYQQKPGQAPVLVIYYDSDRPSGIPERFSGSNSGNTATLTISRVEAGDEADYYCQVWDSSSDHPVFGGGTKLTVL
notes: as for B1
In assay [1], B8 showed an OD450 of 1.74 OD450.

B9: FN 8C (antibody, V domains shown)
VH: QVQLVESGGGVVQPGRSLRLSCAASGFTFSSYGMHWVRQAPGKGLEWVAVISYDGSNKYYADTVKGRFTISRDNSKNTLYLQMNSLRAEDTAVYYCARERTYYDILTGYRHYYGMDVWGQGTTVTVSS
VL: SYELTQPPSVSVAPGQTARITCGGNNIGSKSVHWYQQKPGQAPVLVVYDDSDRPSGIPERFSGSNSGNTATLTISRVEAGDEADYYCQVWDSSSDHWVFGGGTKLTVL
notes: as for B1
For B9, the OD450 in assay [1] was found to be 0.54 OD450.

B10: FM 1A (antibody, V domains shown)
VH: EVQLLESGGGVVQPGRSLRLSCAASGFTFSSYGMHWVRQAPGKGLEWVAVIWYDGSNKYYADSVKGRFTISRDNSKNTLYLQMNSLRAEDTAVYYCAREGAVGATRGFDYWGQGTLVTVSS
VL: SYELTQPPSVSVAPGQTARITCGGNNIGSKSVHWYQQKPGQAPVLVVYDDSDRPSGIPERFSGSNSGNTATLTISRVEAGDEADYYCQVWDSSSDQGVFGGGTKLTVL
notes: as for B1
B10 registered an OD450 in assay [1] of 0.25 OD450.

B11: FD 11E (antibody, V domains shown)
VH: EVQLVESGGGLVKPGGSLRLSCAASGFTFSSYSMNWVRQAPGKGLEWVSSISSSSSYIYYADSVKGRFTISRDNAKNSLYLQMNSLRAEDTAVYYCASLAAAGPETYYYYGMDVWGQGTMVTVSS
VL: not shown
notes: as for B1
For the molecule B11, the binding result in assay [2] is “binds”. Moreover, the OD450 in assay [1] is 1.45 OD450.

B12: FD 1E (antibody, V domains shown)
VH: EVQLLESGGGLVKPGGSLRLSCAASGFTFSSYSMNWVRQAPGKGLEWVSSISSSSSYIYYADSVKGRFTISRDNAKNSLYLQMNSLRAEDTAVYYCASLAAAGPETYYYYGMDVWGQGTMVTVSS
VL: not shown
notes: as for B1
As to B12, the binding result in assay [2] is “binds”. The molecule further yielded an OD450 in assay [1] of 1.45 OD450.

B13: FB 1E (antibody, V domains shown)
VH: EVQLVESGAEVKKPGESLKISCQGSGYRFNSYWIAWVRQMPGKGLEWMGSIFPTDSDIRYNPSFQGQVTISADKSISIAYLQWSSLKASDTAIYYCARHWASMVRGVIRASHYYGMDVWGQGTTVTVSS
VL: QSVLTQPPSASGSPGQSVTISCSGASSDIGDYNYVSWYQQLPGKAPKLLIYEVTKRPSGVPDRFSGSKSGNTASLTVSGLQADDEADYYCSSYAFGGSDIRVFGGGTKLAVL
notes: as for B1
In the case of B13, the binding result in assay [2] is on record as “binds”. The molecule further had an OD450 in assay [1] of 1.4 OD450.

B14: FD 5D (antibody, V domains shown)
VH: EVQLVESGGGLVQPGGSLRLSCAASGFTFSSYSMNWVRQAPGKGLEWVSYISSSSSTIYYADPVKGRFTISRDNAKNSLYLQMNSLRAEDTAVYYCASPGGITAAGTSVLFGYYGMDVWGQGTMVTVSS
VL: not shown
notes: as for B1
The molecule B14 gave an OD450 in assay [1] of 1.83 OD450.

B15: FD 5E (antibody, V domains shown)
VH: EVQLVESGGVVVQPGGSLRLSCAASGFTFDDYAMHWVRQAPGKGLEWVSLISWDGGSTYYADSVKGRFTISRDNSKNSLYLQMNSLRAEDTALYYCAKDSVRFRYYYGMDVWGQGTTVTVSS
VL: EIVLTQSPATLSLSPGERATLSCRASQSVSSYLAWYQQKPGQAPRLLIYDASNRATGIPARFSGSGSGTDFTLTISSLEPEDFAVYYCQQRSNWPLTFGPGTKVDIK
notes: as for B1
Take B15: in assay [2], the binding result is on record as “binds”. This molecule also yielded an OD450 in assay [1] of 0.34 OD450.

B16: FD 1D (antibody, V domains shown)
VH: EVQLVESGGGVVQPGRSLRLSCAASGFTFSSYAMHWVRQAPGKGLEWVAVISYDGSNKYYADSVKGRFTISRDNSKNTLYLQMNSLRAEDTAVYYCARAGSGSYLNWFDPWGQGTLVTVSS
VL: EIVLTQSPATLSLSPGERATLSCRASQSVSSYLAWYQQKPGQAPRLLIYDASNRATGIPARFSGSGSGTDFTLTISSLEPEDFAVYYCQQRSNWPITFGQGTRLEIK
notes: as for B1
Regarding B16, in assay [1], the OD450 worked out at 0.4 OD450.

B17: EW 9B (antibody, V domains shown)
VH: EVQLVQSGAEVKKPGASVKVSCKASGYTFTSYYMHWVRQAPGQGLEWMGIINPSGGSTSYAQKFQGRVTMTRDTSTSTVYMELSSLRSEDTAVYYCAREDGVVPAANLMISLEDYYYYGMDVWGQGTTVTVSS
VL: EIVLTQSPATLSLSPGERATLSCRASQSVSSYLAWYQQKPGQAPRLLIYDASNRATGIPARFSGSGSGTDFTLTISSLEPEDFAVYYCQQRSNWPLTFGGGTKVDIK
notes: as for B1
In turn, B17 registered an OD450 in assay [1] of 0.22 OD450.

B18: FJ 1C (antibody, V domains shown)
VH: QVQLQESGPGLVKPSETLSLTCTVSGYSISSGYYWGWIRQPPGKGLEWIGSIYHSGSTYYNPSLKSRVTISVDTSKNQFSLKLSSVTAADTAVYYCARDKALLWFGELFTNLFDYWGQGTLVTVSS
VL: QSALTQPASVSGSPGQSITISCTGTSSDVGGYNYVSWYQQHPGKAPKLMIYEVSNRPSGVSNRFSGSKSGNTASLTISGLQAEDEANYYCSSYTSSSTLVFGGGTKLTVL
notes: as for B1
In the case of B18, the OD450 in assay [1] was 1.61 OD450.

B19: FI 3A (antibody, V domains shown)
VH: EVQLLESGGGLIQPGGSLRLSCAASGFTVSSNYMSWVRQAPGKGLEWVSVIYSGGSTYYADSVKGRFTISRDNSKNTLYLQMNSLRAEDTAVYYCARDHVRPGMNIWGQGTMVTVSS
VL: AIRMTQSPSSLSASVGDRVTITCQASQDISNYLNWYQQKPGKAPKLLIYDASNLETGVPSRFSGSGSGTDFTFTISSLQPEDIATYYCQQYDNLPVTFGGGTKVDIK
notes: as for B1
For B19, the binding result in assay [2] was “binds”. Further, the OD450 in assay [1] is 1.6 OD450.

B20: FD 7C (antibody, V domains shown)
VH: QLQLQESGPGLVKPSETLSLTCTVSGGSISSYYWSWIRQPPGKGLEWIGYIYYSGSTNYNPSLKSRVTISVDTSKNQFSLKLSSVTAADTAVYYCARDYRFGELFGRFAWFDPWGQGTLVTVSS
VL: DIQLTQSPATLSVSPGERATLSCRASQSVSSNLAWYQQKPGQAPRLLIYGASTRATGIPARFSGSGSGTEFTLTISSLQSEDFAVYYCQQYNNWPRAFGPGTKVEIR
notes: as for B1
As for B20, the binding result in assay [2] is “binds”. The molecule further registered an OD450 in assay [1] of 1.9 OD450.

B21: FD 10A (antibody, V domains shown)
VH: EVQLVESGGGLVQPGGSLRLSCAASGFTFSSYWMHWVRQAPGKGLVWVSRINSDGSSTSYADSVKGRFTISRDNAKNTLYLQMNSLRAEDTAVYYCANMAFDIWGQGTMVTVSS
VL: not shown
notes: as for B1
The molecule B21 showed an OD450 in assay [1] of 1.78 OD450.

B22: FJ 10B (antibody, V domains shown)
VH: QVQLVQSGAEVKKPGESLRISCKGSGYSFTSYWISWVRQMPGKGLEWMGRIDPSDSYTNYSPSFQGHVTISADKSISTAYLQWSSLKASDTAMYYCARLDPRYGPDYYGMDVWGQGTTVTVSS
VL: AIRMTQSPSSLSASVGDRVTITCRASQSISSYLNWYQQKPGKAPKLLIHAASSLQSGVPSRFSGSGSGTDFTLTMSSLQPEDFATYYCQQSYSTPLTFGGGTKVEIR
notes: as for B1
Take B22: in assay [1], the OD450 was 1.48 OD450.

(Values after article PMC8130932 (PLoS Pathogens, 2021).)
